Numbering of substitutions follows the chain as printed. In names and notes the source's numbering stands.
What was measured:
Experiment in all cases: ITC; 250 μM PabB titrated into 25 μM PabA in the cell; 25 °C; 50 mM Tris/HCl pH 7.5, 50 mM KCl, 5 mM MgCl2; without Cho and Gln; one set of sites
Conditions in all cases: both partners purified
[1] = molecular target: T1, PabB variant bG207P (Escherichia coli, UniProt P05041 1-453, bG207P)
T1 construct: PabB, synthase subunit of ADCS, E. coli; construct as m2 with one exchange; Made by QuikChange mutagenesis from the construct of m2; source: E. coli BL21-Gold (DE3), purified (Ni-IMAC, preparative gel filtration)
T1 sequence: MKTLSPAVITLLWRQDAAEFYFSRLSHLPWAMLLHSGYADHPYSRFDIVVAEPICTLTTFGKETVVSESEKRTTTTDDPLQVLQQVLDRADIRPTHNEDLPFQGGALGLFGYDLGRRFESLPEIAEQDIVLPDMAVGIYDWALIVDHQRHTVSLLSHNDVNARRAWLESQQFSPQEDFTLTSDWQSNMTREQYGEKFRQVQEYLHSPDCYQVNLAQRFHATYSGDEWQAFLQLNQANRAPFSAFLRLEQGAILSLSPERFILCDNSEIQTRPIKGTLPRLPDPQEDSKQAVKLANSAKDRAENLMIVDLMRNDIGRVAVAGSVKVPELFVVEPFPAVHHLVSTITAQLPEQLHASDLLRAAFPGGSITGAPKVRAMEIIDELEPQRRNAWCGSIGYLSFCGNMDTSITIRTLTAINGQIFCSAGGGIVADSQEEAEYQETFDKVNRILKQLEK

[2] = molecular target: T2, PabB, synthase subunit of aminodeoxychorismate synthase (ADCS) from Escherichia coli, wild type (Escherichia coli, UniProt P05041 1-453)
T2 construct: PabB, synthase subunit of ADCS, E. coli; the gene was cloned into pET28a; Form used for SEC, ITC and kinetics; TEV cleavage is told only of the proteins used for crystallization; also called wt PabB; ADCS synthase subunit; source: E. coli BL21-Gold (DE3), purified (Ni-IMAC, preparative gel filtration)
T2 sequence: T1 sequence with P207G

[3] = molecular target: T3, PabB variant bD308E (Escherichia coli, UniProt P05041 1-453, bD308E)
T3 construct: PabB, synthase subunit of ADCS, E. coli; construct as m2 with one exchange; Made by QuikChange mutagenesis from the construct of m2; source: E. coli BL21-Gold (DE3), purified (Ni-IMAC, preparative gel filtration)
T3 sequence: T1 sequence with P207G, D308E

B1: PabA, glutaminase subunit of aminodeoxychorismate synthase (ADCS) from Escherichia coli, wild type (enzyme)
chain: MILLIDNYDSFTWNLYQYFCELGADVLVKRNDALTLADIDALKPQKIVISPGPCTPDEAGISLDVIRHYAGRLPILGVCLGHQAMAQAFGGKVVRAAKVMHGKTSPITHNGEGVFRGLANPLTVTRYHSLVVEPDSLPACFDVTAWSETREIMGIRHRQWDLEGVQFHPESILSEQGHQLLANFLHR
notes: PabA, class I glutaminase subunit of ADCS, E. coli; the gene was cloned into pET28a; Form used for SEC, ITC and kinetics; TEV cleavage is told only of the proteins used for crystallization; The G5H-Tag stands between the TEV site and the start methionine of PabA; also called wt PabA; ADCS glutaminase subunit; source: E. coli BL21-Gold (DE3), purified (Ni-IMAC, preparative gel filtration)
B1 was tested, and the Kd [1] was 1.7 µM, the Kd [2] was 0.16 µM and the Kd [3] was 1.7 µM.
